# Experimental data: US8022177B2, “Peptides and calcium regulation in mammalian cells” (The Board of Trustees of the University of Illinois, priority 2005, dated 2011)
# B1: γ6L: rat calcium channel γ6 subunit, long isoform (AF361343), SEQ ID NO:48 (protein, listed as Rattus norvegicus)
# chain: MMWSNFFMQEEDRRRTAVGRRRAQEQQNLGLTPEREGKIKLGLLVAIVGATLAVLAVGTEFWVELNTYKTNGSAVCEAAHLGLWKVCIKRLWQADVPAGRETCGPAELPGEANCTYFKFFTTGENAHIFQRTTKKEVNLAAAVIAVLGLTAMALGCLCVIMVLSKGAEFLLRLGAVCFGLSGLLLFVSLEVFRHSVRALLQGVNPETPPAPRLAYEYSWSLGCGVGAGLILLLGGVCFLLLTLPSWPWRSLCPKRGGPTA
# B2: γ4: rat calcium channel γ4 subunit (AF361341), SEQ ID NO:47 (protein, listed as Rattus norvegicus)
# chain: MVRCDRGLQMLLTTAGAFAAFSLMAIAIGTDYWLYSSAHICNGTNLTMDDGPPPRRARGDLTHSGLWRVCCIEGIYKGHCFRINHFPEDNDYDHDSSEYLLRIVRASSVFPILSTILLLLGGLCIGAGRIYSRKNNIVLSAGILFVAAGLSNIIGIIVYISSNTGDPSDKRDEDKKNHYNYGWSFYFGALSFIVAETVGVLAVNIYIEKNKELRFKTKREFLKASSSSPYSRMPSYRYRRRRSRSSSRSTEASPSRDASPVGLKITGAIPMGELSMYTLSREPLKVTTAASYSPDQDAGFLQMHDFFQQDLKEGFHVSMLNRRTTPV
# Molecular target: T1, Cav3.1 (Homo sapiens, UniProt O43497)
# T1 construct: expressed in transfected cells; host or cells: HEK-293, stably transfected
# T1 sequence (O43497 whole entry): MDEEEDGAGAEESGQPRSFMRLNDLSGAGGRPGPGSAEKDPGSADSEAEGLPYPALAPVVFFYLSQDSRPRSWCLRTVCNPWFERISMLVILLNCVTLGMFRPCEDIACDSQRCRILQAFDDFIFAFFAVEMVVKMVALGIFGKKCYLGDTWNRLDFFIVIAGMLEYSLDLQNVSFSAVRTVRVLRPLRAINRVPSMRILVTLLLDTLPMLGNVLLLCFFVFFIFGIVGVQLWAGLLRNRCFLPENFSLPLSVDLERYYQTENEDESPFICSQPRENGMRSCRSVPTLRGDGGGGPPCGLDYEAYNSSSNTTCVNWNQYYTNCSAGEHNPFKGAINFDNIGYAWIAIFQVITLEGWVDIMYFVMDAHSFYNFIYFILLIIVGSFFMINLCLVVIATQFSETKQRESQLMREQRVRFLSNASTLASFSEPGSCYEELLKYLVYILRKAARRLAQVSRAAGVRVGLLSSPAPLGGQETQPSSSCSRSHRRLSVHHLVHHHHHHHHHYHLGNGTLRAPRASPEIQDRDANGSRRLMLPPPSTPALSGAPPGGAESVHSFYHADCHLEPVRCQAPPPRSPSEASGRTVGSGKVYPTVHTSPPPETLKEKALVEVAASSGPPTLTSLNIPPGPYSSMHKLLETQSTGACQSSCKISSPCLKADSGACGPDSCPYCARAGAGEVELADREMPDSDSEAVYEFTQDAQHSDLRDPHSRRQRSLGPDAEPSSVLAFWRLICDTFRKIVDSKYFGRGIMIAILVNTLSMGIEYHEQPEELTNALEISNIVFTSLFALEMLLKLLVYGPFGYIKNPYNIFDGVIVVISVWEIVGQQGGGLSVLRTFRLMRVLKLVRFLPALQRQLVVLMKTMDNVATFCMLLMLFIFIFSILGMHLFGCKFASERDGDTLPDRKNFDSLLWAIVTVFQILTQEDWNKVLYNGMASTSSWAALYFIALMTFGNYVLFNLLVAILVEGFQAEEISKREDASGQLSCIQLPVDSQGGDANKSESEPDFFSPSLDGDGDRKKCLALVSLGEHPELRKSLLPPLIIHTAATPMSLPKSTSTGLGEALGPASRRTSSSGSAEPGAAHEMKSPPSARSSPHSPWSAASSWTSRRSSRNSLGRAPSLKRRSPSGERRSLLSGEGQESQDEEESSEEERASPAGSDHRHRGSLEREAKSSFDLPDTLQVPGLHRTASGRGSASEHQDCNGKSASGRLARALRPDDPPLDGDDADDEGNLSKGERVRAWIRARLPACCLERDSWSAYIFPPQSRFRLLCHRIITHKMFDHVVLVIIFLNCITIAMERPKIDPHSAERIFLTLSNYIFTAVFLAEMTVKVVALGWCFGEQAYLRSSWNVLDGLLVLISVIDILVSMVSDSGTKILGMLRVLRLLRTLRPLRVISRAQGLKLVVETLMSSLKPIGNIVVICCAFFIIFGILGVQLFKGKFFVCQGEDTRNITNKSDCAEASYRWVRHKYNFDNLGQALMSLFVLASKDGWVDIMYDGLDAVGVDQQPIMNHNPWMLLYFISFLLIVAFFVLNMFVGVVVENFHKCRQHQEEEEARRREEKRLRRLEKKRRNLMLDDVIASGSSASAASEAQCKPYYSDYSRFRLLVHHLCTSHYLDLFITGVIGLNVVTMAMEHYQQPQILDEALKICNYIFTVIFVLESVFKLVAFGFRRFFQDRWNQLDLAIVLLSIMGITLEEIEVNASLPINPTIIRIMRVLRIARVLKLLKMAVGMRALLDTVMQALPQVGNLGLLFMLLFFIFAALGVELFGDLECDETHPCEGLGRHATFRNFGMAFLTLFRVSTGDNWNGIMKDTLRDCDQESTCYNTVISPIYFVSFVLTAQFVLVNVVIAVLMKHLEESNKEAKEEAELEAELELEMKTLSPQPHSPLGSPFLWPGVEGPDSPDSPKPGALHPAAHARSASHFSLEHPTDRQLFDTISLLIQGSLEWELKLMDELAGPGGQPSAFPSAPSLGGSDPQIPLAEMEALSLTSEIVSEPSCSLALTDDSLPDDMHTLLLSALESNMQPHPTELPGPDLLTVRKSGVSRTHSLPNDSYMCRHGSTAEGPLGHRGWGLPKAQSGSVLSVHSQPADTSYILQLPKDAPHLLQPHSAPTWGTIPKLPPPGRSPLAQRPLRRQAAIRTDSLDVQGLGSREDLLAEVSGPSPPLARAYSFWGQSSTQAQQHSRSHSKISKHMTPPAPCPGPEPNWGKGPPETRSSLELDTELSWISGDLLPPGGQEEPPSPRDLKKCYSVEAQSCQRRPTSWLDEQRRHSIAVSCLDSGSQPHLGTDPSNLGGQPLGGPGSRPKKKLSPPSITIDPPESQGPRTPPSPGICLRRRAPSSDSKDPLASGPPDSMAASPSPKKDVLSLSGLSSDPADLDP
# Test: Whole-cell patch clamp of Cav3.1 dependent LVA calcium current in HEK-293/Cav3.1 cells transiently transfected with γ subunits (Example 1)
# Format: cell-based
# Conditions: for Effect on current kinetics or voltage dependency: HEK-293/Cav3.1; for Peak current density, % of control value: HEK-293/Cav3.1, normalized to adCGI vector control, mean±S.E.M.; for Activation V 0.5 / Activation k / Deactivation tau @ −100 mV, Fast / Inactivation Tau @ −20 mV / Inactivation V 0.5 / Inactivation k / Time to peak @ −20 mV / V peak: Table 2
# Method: 2.3. Transfection. Untransfected HEK-293 cells, HEK-293 cell lines stably transfected with Cav3.1, and HL-1 cells were transiently transfected with vectors containing γ subunit, GFP, and modified CFP cDNAs using Lipofectamine 2000 reagent (InVitrogen) as per the manufacturer's recommendations. HEK-293 cells were grown to 70-80% confluence before transfection. HL-1 cells were grown to 50-75% confluence before transfection.
# 2.4. Electrophysiology. Whole-cell calcium currents were recorded using an Axopatch-1 D patch clamp system and Clampex 8.0 software. Pipettes were fabricated from borosilicate glass and had typical resistances of 2-4 MΩ. The pipette solution contained (in mM): 130 NaCl, 10 EGTA, 2 MgCl2, 1 CaCl2, 10 HEPES, 3 Tris-ATP, and either 0.3 Li2GTP or 0.3 Tris-GTP, adjusted to pH 7.4 with NaOH and 280 mOsm with sucrose. The bath solution contained (in mM): 137 NaCl (for HEK-293 experiments) or 120 TEACl (for HL-1 experiments), 1 KCl, 1 MgCl2, 0.33 NaH2PO4, 2 CaCl2 (for HEK-293 experiments) or 5 CaCl2 (for HL-1 experiments), 10 glucose (for HL-1 experiments only), 10 HEPES, and 30 μM TTX (for HEK-293 experiments only), adjusted to pH 7.4 with NaOH (for HEK-293 experiments) or TEAOH (for HL-1 experiments) and 280 mOsm with sucrose. NaCl was used as the major salt in the pipette solution order to eliminate any outward K+ currents.
# Recordings from HEK-293 cells were made 48-96 h posttransfection, at which time expression, as measured by GFP fluorescence, peaked. HL-1 cells were used for recording 24-36 h post-transfection. Current densities in HEK-293/Cav3.1 cell experiments were normalized to control for variation in current expression in the different frozen stocks of stable cell lines used. […] HL-1 experiments were performed using a single stock of cells. All HEK-293 data are from current records in which pipette and whole-cell capacitance were about 100% compensated and series resistance was compensated to >80%. Whole-cell capacitance and series resistance were not compensated for HL-1 recordings as currents were typically <100 pA. Series resistance values were typically <10 MX, and no records were used in which the voltage error (as defined by Ver=Imax×Ra) was greater than 5 mV. The holding potential of all protocols used for HEK-293 cells was −100 mV except for steady-state inactivation protocols where the holding potential was −120 mV. The holding potential for protocols used for HL-1 cells was −90 mV. Current-voltage relationships for all HEK-293 and HL-1 cells were measured using 50 ms test depolarizations. Peak current amplitudes for activation curves were determined by fitting tail currents, elicited by stepping membrane voltage from varying test potentials to −60 mV, with the Boltzman equation. Test potential steps for activation protocols were of varied durations, corresponding to the time to peak of the elicited current. Inactivation curves were determined by fitting peak amplitudes of currents, observed in a test pulse to −20 mV, following 500 ms steps to varying potentials, with the Boltzman equation. Time to peak was determined using the current-voltage protocol described above. Inactivation time constants were determined by fitting the decay phase of currents to an exponential equation and deactivation time constants were determined by fitting the decay phase of tail currents to an exponential equation. […] Currents were recorded at 40 kHz and on-line filtered at either 5 or 10 kHz. In some cases currents were off-line filtered at 1 kHz to further reduce noise. Current/voltage relationships and tail currents were recorded from HEK cells using an on-line P/−4 subtraction procedure. Calcium currents recorded from HL-1 cells were off-line leak subtracted. The average membrane capacitance of untransfected HEK-293 cells in pilot experiments was 12.5±1.4 pF (n=8). […]
Molecule,Effect on current kinetics or voltage dependency,"Peak current density, % of control value",Activation V 0.5,Activation k,"Deactivation tau @ −100 mV, Fast",Inactivation Tau @ −20 mV,Inactivation V 0.5,Inactivation k,Time to peak @ −20 mV,V peak,Decrease in Cav3.1 current density (co-expression with Cav3.1 in HEK-293 cells),Effect on Cav3.1 current (HEK-293 cells),"Peak current, % of control value (doubling the amount of γ4 DNA transfected)"
B1,did not alter current kinetics or voltage dependency,51%±17%,−36.3 ± 6.2 (n = 4) mV,12.7 ± 1.5 (n = 4),1.54 ± 0.48 (n = 4) ms,18.6 ± 1.1 (n = 6) ms,−78.5 ± 2.6 (n = 6) mV,5.4 ± 0.3 (n = 6),6.0 ± 0.8 (n = 5) ms,−31.1 ± 3.1 (n = 9) mV,49%,–,–
B2,did not alter current kinetics or voltage dependency,93%±7%,−37.3 ± 0.9 (n = 8) mV,11.8 ± 0.5 (n = 8),1.84 ± 0.28 (n = 8) ms,15.8 ± 0.7 (n = 7) ms,−79.2 ± 1.5 (n = 7) mV,6.1 ± 0.2 (n = 7),5.2 ± 0.5 (n = 9) ms,−30.6 ± 1.5 (n = 9) mV,–,no significant effect,128%±19%
